± gives the uncertainty stated by the source.
Test: protein stability index of a GFP-peptide fusion (yeast GPS) (PSI 1-4); higher = more stable; sorted into four equal gates, so the index is relative within each strain
In short: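 Plasmids isolated from each sorting gate were PCR-amplified and Illumina-sequenced, and barcodes assigned the reads to strains. The gates, four of equal size, were set by GFP/Cherry fluorescence ratio on mid-log cultures in leucine-free medium. These cultures were yeast carrying a pooled library of tiled 17-residue yeast protein peptides fused downstream of GFP on a plasmid that also expresses Cherry. The protein stability index is the sum of every gate's read frequency times its gate number.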

Sequence	protein stability index (doa10∆)	protein stability index (pdr5∆)	protein stability index (san1∆)	protein stability index (ubr1∆)
SLSIEENIPVALCKNRK [POP1]	2.76 ± 0.07	2.98 ± 0.1	2.75 ± 0.18	2.95 ± 0.1
SLTLSFIRHVAKLNYKN [ECM29]	2.7 ± 0.092	2.87 ± 0.088	2.91 ± 0.054	2.92 ± 0.048
SLVEVVFYRGMTMQVAV [FAS1]	1.32 ± 0.06	1.88 ± 0.059	1.4 ± 0.11	1.99 ± 0.12
SMERKVQGAAPWDTSLE [MCD1]	3.5 ± 0.11	3.1 ± 0.089	3.25 ± 0.087	3.44 ± 0.16
SMGSILLSFVLGVVFGR [YML031W/NDC1]	2.39 ± 0.046	2.13 ± 0.043	2.56 ± 0.055	2.64 ± 0.059
SMKYDNGVIIAADNLGS [PRE4]	2.66 ± 0.15	3.35 ± 0.088	2.5 ± 0.13	3.06 ± 0.11
SMMSDGIEHFDIPPPAI [RPO31]	1.97 ± 0.16	1.81 ± 0.13	1.92 ± 0.17	2.06 ± 0.15
SMQTIAETIILSSAGKN [SRB5]	2.09 ± 0.045	2.39 ± 0.048	1.8 ± 0.055	1.9 ± 0.029
SMSEEFKYVSVRYEEKR [BRR2]	3.41 ± 0.2	3.38 ± 0.14	3.12 ± 0.22	
SMVLFFVCLSCSHIFTS [RPB9]	1.55 ± 0.073	1.4 ± 0.081	1.43 ± 0.14	1.67 ± 0.095
SNEAAKPSFSFPGKPVD [YOR098C/NUP1]	2.84 ± 0.048	2.96 ± 0.048	3.01 ± 0.038	2.95 ± 0.047
SNFADSADYEILYEIRA [YDL116W/NUP84]	1.83 ± 0.081	1.61 ± 0.097	2.42 ± 0.19	1.71 ± 0.099
SNGEVLEVGKNNFCALY [RPN14]	2.34 ± 0.07	2.05 ± 0.11	1.64 ± 0.14	2.05 ± 0.036
SNGPRAAKKRRPAAKGK [RRP6]	2.97 ± 0.12	3.2 ± 0.11	3.12 ± 0.08	3.17 ± 0.085
SNGSGIVAAGGGSGAAT [CSL4]	3.53 ± 0.12	3.53 ± 0.18	3.45 ± 0.11	3.48 ± 0.11
SNGVLNVDNQTSDLVKS [RPS17A]	2.83 ± 0.12	2.88 ± 0.12	3.06 ± 0.18	2.86 ± 0.075
SNIGNNSINNNNIKNGT [YDL088C/ASM4]	2.72 ± 0.047	2.85 ± 0.057	2.85 ± 0.047	2.65 ± 0.042
SNIPTLIEKLQGFSKDT [YDL116W/NUP84]	3.22 ± 0.1	3.23 ± 0.088	3.01 ± 0.05	3.17 ± 0.073
SNLEKLLFINSSKLVDV [YML103C/NUP188]	2.48 ± 0.094	2.07 ± 0.066	1.83 ± 0.12	2.62 ± 0.082

Sequence	protein stability index (doa10∆)	protein stability index (pdr5∆)	protein stability index (san1∆)	protein stability index (ubr1∆)
SNMLGSNEDVMMTGAEQ [RPB3]	3.47 ± 0.22	3.35 ± 0.12	3.26 ± 0.1	3.08 ± 0.089
SNNQVIKMQRQFSQLND [MED6]	3.01 ± 0.073	3.04 ± 0.059	3.03 ± 0.064	3.18 ± 0.06
SNNSTTNTFGSNSAGTS [YJL041W/NSP1]	3.08 ± 0.18	3.2 ± 0.14		3.05 ± 0.18
SNQAVGQTWNFPEVFQV [SRB8]	3.11 ± 0.21	3.36 ± 0.2	3.11 ± 0.14	
SNSALFRAVGEGNAQLV [FAS1]	2.15 ± 0.11	2.37 ± 0.11	2.27 ± 0.096	1.94 ± 0.09
SNSANVSSPESEKNKRQ [ITC1]	2.93 ± 0.06	3.1 ± 0.045	2.95 ± 0.036	3.09 ± 0.033
SNSNVTNPSSIFGGAGG [YOR098C/NUP1]	2.89 ± 0.049	2.77 ± 0.05	2.29 ± 0.052	2.87 ± 0.045
SNTDETKGENYQLVKTL [FAS2]	2.94 ± 0.081	3.06 ± 0.081	2.81 ± 0.076	3.25 ± 0.084
SNTEPIPRSNRHGSVVE [MED1]	2.23 ± 0.17	3.22 ± 0.23	2.72 ± 0.17	
SNVYLSLVNSYIIDSPQ [COB]	1.76 ± 0.047	1.81 ± 0.056	2.24 ± 0.071	1.71 ± 0.052
SPDKIGTFTADYSKPNL [SSN2]	2.81 ± 0.094	3 ± 0.066	2.65 ± 0.08	2.92 ± 0.064
SPELSLQRHLSLGIRPC [RRP43]	2.54 ± 0.041	2.65 ± 0.053	2.73 ± 0.052	3.06 ± 0.048
SPMLSISNLTQEQVQDY [FAS1]	2.97 ± 0.058	2.97 ± 0.047	2.98 ± 0.05	3.09 ± 0.044
SPQLTAIIGLKSGTSHD [SNF12]	1.52 ± 0.067	1.82 ± 0.074	1.84 ± 0.12	1.66 ± 0.065
SPSPILLTSAGCKNGSF [NUT1]	2.01 ± 0.1	2.06 ± 0.052	1.61 ± 0.24	2.41 ± 0.073
SPTENGVFDPASYSKYL [RPL22B]	3.18 ± 0.074	3.25 ± 0.083	3.05 ± 0.066	2.87 ± 0.06
SPVQDWNLLRSLYIFFT [YML103C/NUP188]	2.38 ± 0.079	1.71 ± 0.053	2.25 ± 0.069	1.95 ± 0.042
SPVTGDNSPSEDFMDIP [SNF2]	3.21 ± 0.12	3.25 ± 0.1	2.81 ± 0.17	3.42 ± 0.058
SQIIARNEEILRDIGEC [SMC2]	2.79 ± 0.077	2.46 ± 0.091	2.85 ± 0.062	3.07 ± 0.084
